# Reference: paper PMC4938175, “Conserved Sequence Preferences Contribute to Substrate Recognition by the Proteasome*^([image sbox.jpg])” (The Journal of Biological Chemistry, 2016)
# Biological target: purified S. cerevisiae proteasome (S. cerevisiae)
# Test: competitive inhibition of proteasomal degradation of a fluorescent substrate; apparent Ki; DHFR-tail competitor varied, UbL-GFP-95 substrate, 40 nM purified yeast proteasome; loss of GFP fluorescence in 384-well plates; 30 °C (methods; the legend of Figure 7 says room temperature); 50 mM Tris, 5 mM MgCl2, 2.5% glycerol, 1 mM ATP, 4 mM DTT, 0.2 mg/ml BSA, 10 mM creatine phosphate, 0.1 mg/ml creatine kinase, pH 7.5; …
# Settings: both partners purified
row,Binder,Ki [µM]
1,DHFR-GRR (other) MISLIAALAVDRVIGMENAMPWNLPADLAWFKRNTLNKPVIMGRHTWESIGRPLPGRKNIILSSQPGTDDRVTWVKSVDEAIAACGDVPEIMVIGGGRVYEQFLPKAQKLYLTHIDAEVEGDTHFPDYEPDDWESVFSEFHDADAQNSHSYCFEILERRPRDSFGGGSGAGAGGGGMFGSGGGG,130 ± 20
2,DHFR-35 (other) MISLIAALAVDRVIGMENAMPWNLPADLAWFKRNTLNKPVIMGRHTWESIGRPLPGRKNIILSSQPGTDDRVTWVKSVDEAIAACGDVPEIMVIGGGRVYEQFLPKAQKLYLTHIDAEVEGDTHFPDYEPDDWESVFSEFHDADAQNSHSYCFEILERRPRLRYQPLLRISQNCEAAILRASQTRLNTIHHHHHH,36 ± 6
3,DHFR-eRR (other) MISLIAALAVDRVIGMENAMPWNLPADLAWFKRNTLNKPVIMGRHTWESIGRPLPGRKNIILSSQPGTDDRVTWVKSVDEAIAACGDVPEIMVIGGGRVYEQFLPKAQKLYLTHIDAEVEGDTHFPDYEPDDWESVFSEFHDADAQNSHSYCFEILERRPRGGGGAWLLPVSLVRRRTTLAPNTQTASPRALADS,36 ± 5
